We go through six substances from paper PMC2798062.

Data set [1] relates to C[C@H]1C=C2C=C[C@H](C)[C@H](CC[C@@H](O)C[C@@H](O)CC(=O)O)[C@H]2[C@@H](O)C1. In words: purified protein. The settings on record: 2 mM DMB-SMMP fixed, 10% DMSO, 25°C. The class given is biochemical, Aspergillus terreus.
Data set [2] concerns CCC(C)(C)C(=O)SCCC(=O)OC. The data set is described as follows: purified protein. The settings on record: 2 mM MJA fixed; 10% DMSO; table header prints mM^-1, text b12 prints mM; 25.0 °C. The class given is biochemical, Aspergillus terreus.

As usually defined, the Km is the concentration of substrate that gives half-maximal velocity. In general, kcat refers to the number of substrate molecules converted per active site and unit of time at saturation. For the substance “LovD G0 (Aspergillus terreus; A190T/A86V/C40A/C60N/D12G/G275S)”, in data set [1] (mutant G3), the Km worked out at 770 ± 110 µM and the kcat stood at 0.031 ± 0.0015 s⁻¹.
On to “LovD G0 (Aspergillus terreus; A190T/A86V/C40A/C60N/D12G/G275S/H161Y/K26E)”, for which, in data set [1] (mutant G5), the Km amounted to 740 ± 30 µM and the kcat worked out at 0.0435 ± 0.0005 s⁻¹.
For the substance “LovD G0 (Aspergillus terreus; A190T/A86V/C40A/C60N/D12G/G275S/H161Y/K26E/V334F)”, in data set [1] (mutant G7), the Km worked out at 700 ± 40 µM and the kcat was 0.08 ± 0.001 s⁻¹.
As to “LovD G0 (Aspergillus terreus; C40A/C60N)”, the figures for the Km in data set [1] and in data set [2] were 770 ± 170 µM and 0.67 ± 0.12 mM, respectively. Moreover, the kcat in data set [1] and in data set [2] was 0.011 ± 0.0005 s⁻¹ throughout.
Regarding “LovD G0 (Aspergillus terreus; A86V/C40A/C60N)”, in data set [1] (mutant G1), the Km worked out at 740 ± 160 µM and the kcat came out at 0.0132 ± 0.0005 s⁻¹.
In the case of “LovD G0 (Aspergillus terreus; A190T/A86V/C40A/C60N/D12G/G275S/H161Y/K26E/L361M/V334D)”, in data set [1] (mutant G6), the Km worked out at 700 ± 70 µM and the kcat turned out to be 0.055 ± 0.001 s⁻¹.
